Test results taken from US20130115227A1 (Merck Sharp & Dohme, published 2013).

Tests used:
[1] = target: T1, amyloid β (Aβ)-derived diffusible ligands (ADDLs) (UniProt P05067 672-713); experiment: ELISA, plate coated with ADDLs (50 pmol/well), anti-human IgG-alkaline phosphatase, luminescence; antibody kept one month at 25 °C
T1 construct: domain: Aβ1-42; Soluble oligomers of Aβ1-42, with the number of chains per oligomer not fixed; They were prepared from HFIP film in DMSO/F12 and enriched on a 50 kDa filter; The result sentences say 'ADDLs'; also called ADDL oligomers; soluble …
T1 sequence (P05067 672-713 limits assumed): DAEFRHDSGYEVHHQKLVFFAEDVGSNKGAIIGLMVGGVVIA
Protocol: (§1) The codon AAT for N was mutated to AGT for S in 19.3S33 (SEQ ID NO: 55), ACT for T in 19.3T33 (SEQ ID NO: 56), GAA for E in 19.3E33 (SEQ ID NO: 67), or GAT for D in 19.3D33 (SEQ ID NO: 68), and the new condons in that position were confirmed by DNA sequencing. […] The expression and purification methods were described above in this example.
(§2) Determination of EC50. High protein binding plates (Costar, Corning, Lowell, Mass.), were coated with target ligand in PBS overnight at 4° C. The concentration of coating protein was 100 pmol/well for Aβ40 (American Peptide, Sunnyvale, Calif.) and 50 pmol/well for ADDLs. ADDLs were generated as described in Example 1B. Next day, plates were washed five times with PBS+0.05% Tween-20 (Sigma Aldrich, St. Louis, Mo.) and blocked overnight with Casein blocking buffer (ThermoScientific, Waltham, Mass.) and 0.05% Tween-20. […] After 2 hours at room temperature incubation, the plates were washed and alkaline phosphatase conjugated anti-human IgG (ThermoScientific, Waltham, Mass.) was added at 0.08 μg/ml. After 45 minutes at room temperature incubation, the plates were washed and Tropix® CDP®-Star chemiluminescent substrate (Life Technologies™, Carlsbad, Calif.) was added. Luminescence was detected after 30 minutes on an EnVision® microplate reader (PerkinElmer, Waltham, Mass.).

[2] = target: T1, amyloid β (Aβ)-derived diffusible …; experiment: ELISA, plate coated with ADDLs (50 pmol/well), anti-human IgG-alkaline phosphatase, luminescence; antibody kept one month at 4 °C
Protocol: as §1, §2

[3] = target: T1, amyloid β (Aβ)-derived diffusible …; experiment: ELISA, plate coated with ADDLs (50 pmol/well), anti-human IgG-alkaline phosphatase, luminescence; antibody kept one month at 40 °C
Protocol: as §1, §2

[4] = target: T1, amyloid β (Aβ)-derived diffusible …; experiment: ELISA, plate coated with ADDLs (50 pmol/well), anti-human IgG-alkaline phosphatase, luminescence; antibody not stored (0 timepoint)
Protocol: as §2, with “Mass.). Curve fits were completed using GraphPad Prism (GraphPad Software, Inc., San Diego, Calif.) software.” for “Mass.).”

[5] = target: T1, amyloid β (Aβ)-derived diffusible …; experiment: phage/Fab ELISA on ADDLs, anti-M13-HRP detection
Protocol: Biotinylated ADDLs (bADDLs) or monomer Aβ1-40 or Aβ1-42 was added to a high-capacity streptavidin-coated plate (Sigma-Aldrich, St. Louis, Mo.) with 100 μL per well of coating reagent in PBS at 1 μM and incubated for two hours at room temperature. The plates were washed in PBS with 0.05% Tween (six times) and then PBS alone (three times) prior to blocking wells with 5% non-fat dry milk in PBS for one hour at room temperature. The wells were then washed and a serial dilution of antibody samples added to the plates and allowed to bind for two hours at room temperature. After incubation and washing, the antibody binding was detected with a goat anti-human IgG-Fc secondary antibody conjugated to horse radish peroxidase (HRP) (1:1,000; one hour at room temperature). The HRP label was visualized with tetramethyl benzidine (Virolabs, Chantilly, Va.) as a substrate and read at 450 nm on a microplate reader.
After each round of panning, single colonies were randomly picked to produce phage in 96-well plates. The procedures for phage preparation in 96-well plate were similar to that described above except no phage precipitation step was used. Culture plates containing colonies growing in 120 μL of 2×TY medium with 100 μg/ml ampicillin and 0.1% glucose were incubated overnight in a HiGro® shaker (Genomic Solutions, Ann Arbor, Mich.) at 30° C. with shaking at 450 rpm. The phage supernatants (about 100 μL) were directly used for analysis in the ADDL binding ELISA described above. One difference is that the binding of phage to ADDLs was detected with an anti-M13-antibody conjugated to HRP (Amersham Bioscience, GE Healthcare, Waukesha, Wis.).

[6] = target: T1, amyloid β (Aβ)-derived diffusible …; experiment: ELISA, plate coated with ADDLs (50 pmol/well), 12 point antibody titration, anti-human IgG-alkaline phosphatase, luminescence
Protocol: as §2, with “Mass.). Curve fits were completed using GraphPad Prism (GraphPad Software, Inc., San Diego, Calif.) software.” for “Mass.).”

[7] = target: T1, amyloid β (Aβ)-derived diffusible …; experiment: Biacore (SPR); affinity for Aβ1-40 monomer over affinity for ADDLs
[8] = target: T1, amyloid β (Aβ)-derived diffusible …; experiment: KinExA, equilibrium constant in solution
[9] = target: T1, amyloid β (Aβ)-derived diffusible …; experiment: Biacore (SPR)
[10] = target: T1, amyloid β (Aβ)-derived diffusible …; experiment: KinExA; constant for Aβ1-40 monomer over constant for ADDLs

B1: anti-ADDL antibody 19.3 (antibody, human IgG2, kappa, V domains shown)
VH: EVQLVESGGGLVQPGGSLRLSCAASGFTFSSFGMHWVRQAPGKGLEWVAYISRGSSTIYYADTVKGRFTISRDNAKNSLYLQMNSLRAEDTAVYYCARGITTALDYWGQGTLVTVSS
VL: DVVMTQSPLSLPVTPGEPASISCRSSQSIVHSNGNTYLEWYLQKPGQSPQLLIYKASNRFSGVPDRFSGSGSGTDFTLKISRVEAEDVGVYYCFQGSRLGPSFGQGTKLEIKR
notes: The same paragraph also says all VH were cloned into an IgG1 expression vector; copies: 2 + 2
EC50 (read off the curve) [1]: ~2 nM
EC50 (read off the curve) [2]: ~2 nM
EC50 (read off the curve) [3]: ~6 nM
EC50 (read off the curve) [4]: ~1 nM

B2: Fab clone 14.2 (phage-displayed) (Fab, V domains shown)
VH: EVQLVESGGGLVQPGGSLRLSCAASGFTFSSFGMHWVRQAPGKGLEWVAYISRGSSTIYYADTVKGRFTISRDNAKNSLYLQMNSLRAEDTAVYYCARGITTALDYWGQGTLVTVSS
VL: DVVMTQSPLSLPVTPGEPASISCRSSQSIVHSNGNTYLEWYLQKPGQSPQLLIYKASNRFSGVPDRFSGSGSGTDFTLKISRVEAEDVGVYYCFQGSRVPPGFGQGTKLEIK
notes: VH is deduced from the parental VH being kept in the library
binding result [5]: binds

B3: Fab clone 9.2 (phage-displayed) (Fab, V domains shown)
VH: EVQLVESGGGLVQPGGSLRLSCAASGFTFSSFGMHWVRQAPGKGLEWVAYISRGSSTIYYADTVKGRFTISRDNAKNSLYLQMNSLRAEDTAVYYCARGITTALDYWGQGTLVTVSS
VL: DVVMTQSPLSLPVTPGEPASISCRSSQSIVHSNGNTYLEWYLQKPGQSPQLLIYKASNRFSGVPDRFSGSGSGTDFTLKISRVEAEDVGVYYCFQGSRAPPFFGQGTKLEIK
notes: as for B2
binding result [5]: binds

B4: anti-ADDL antibody 19.3T33 (antibody, V domains shown)
VH: EVQLVESGGGLVQPGGSLRLSCAASGFTFSSFGMHWVRQAPGKGLEWVAYISRGSSTIYYADTVKGRFTISRDNAKNSLYLQMNSLRAEDTAVYYCARGITTALDYWGQGTLVTVSS
VL: DVVMTQSPLSLPVTPGEPASISCRSSQSIVHSTGNTYLEWYLQKPGQSPQLLIYKASNRFSGVPDRFSGSGSGTDFTLKISRVEAEDVGVYYCFQGSRLGPSFGQGTKLEIKR
binding result [6]: binds

B5: Fab clone 7.2 (phage-displayed) (Fab, V domains shown)
VH: EVQLVESGGGLVQPGGSLRLSCAASGFTFSSFGMHWVRQAPGKGLEWVAYISRGSSTIYYADTVKGRFTISRDNAKNSLYLQMNSLRAEDTAVYYCARGITTALDYWGQGTLVTVSS
VL: DVVMTQSPLSLPVTPGEPASISCRSSQSIVHSNGNTYLEWYLQKPGQSPQLLIYKASNRFSGVPDRFSGSGSGTDFTLKISRVEAEDVGVYYCFQGSYAPPGFGQGTKLEIK
notes: as for B2
binding result [5]: binds

B6: Fab clone 11.4 (phage-displayed) (Fab, V domains shown)
VH: EVQLVESGGGLVQPGGSLRLSCAASGFTFSSFGMHWVRQAPGKGLEWVAYISRGSSTIYYADTVKGRFTISRDNAKNSLYLQMNSLRAEDTAVYYCARGITTALDYWGQGTLVTVSS
VL: DVVMTQSPLSLPVTPGEPASISCRSSQSIVHSNGNTYLEWYLQKPGQSPQLLIYKASNRFSGVPDRFSGSGSGTDFTLKISRVEAEDVGVYYCFQGSRVPVRFGQGTKLEIK
notes: as for B2
binding result [5]: binds

B7: humanized anti-ADDL antibody h3B3 (antibody, V domains shown)
VH: EVQLVESGGGLVQPGGSLRLSCAASGFTFSSFGMHWVRQAPGKGLEWVAYISRGSSTIYYADTVKGRFTISRDNAKNSLYLQMNSLRAEDTAVYYCARGITTALDYWGQGTLVTVSS
VL: DVVMTQSPLSLPVTPGEPASISCRSSQSIVHSNGNTYLEWYLQKPGQSPQLLIYKASNRFSGVPDRFSGSGSGTDFTLKISRVEAEDVGVYYCFQGSHVPPTFGQGTKLEIK
notes: Parental antibody; also called humanized 3B3; h3B3 (parental)
Ratio (Aβ monomer/ADDL) [7]: 10
Kd [8]: 3.3 nM
Kd [9]: 10 nM
Ratio (Aβ monomer/ADDL) [10]: 13.6

B8: anti-ADDL antibody 19.3S33 (antibody, V domains shown)
VH: EVQLVESGGGLVQPGGSLRLSCAASGFTFSSFGMHWVRQAPGKGLEWVAYISRGSSTIYYADTVKGRFTISRDNAKNSLYLQMNSLRAEDTAVYYCARGITTALDYWGQGTLVTVSS
VL: DVVMTQSPLSLPVTPGEPASISCRSSQSIVHSSGNTYLEWYLQKPGQSPQLLIYKASNRFSGVPDRFSGSGSGTDFTLKISRVEAEDVGVYYCFQGSRLGPSFGQGTKLEIKR
binding result [6]: binds

B9: Fab clone 13.1 (phage-displayed) (Fab, V domains shown)
VH: EVQLVESGGGLVQPGGSLRLSCAASGFTFSSFGMHWVRQAPGKGLEWVAYISRGSSTIYYADTVKGRFTISRDNAKNSLYLQMNSLRAEDTAVYYCARGITTALDYWGQGTLVTVSS
VL: DVVMTQSPLSLPVTPGEPASISCRSSQSIVHSNGNTYLEWYLQKPGQSPQLLIYKASNRFSGVPDRFSGSGSGTDFTLKISRVEAEDVGVYYCFQGSKAHPSFGQGTKLEIK
notes: as for B2
binding result [5]: binds
